Results as given in patent US20100055715A1 (published 2010).

Target: T1, Mycobacterium proteasomal ATPase (Mpa), untagged recombinant (Mycobacterium tuberculosis, UniProt P9WQN5 1-609)
T1 sequence: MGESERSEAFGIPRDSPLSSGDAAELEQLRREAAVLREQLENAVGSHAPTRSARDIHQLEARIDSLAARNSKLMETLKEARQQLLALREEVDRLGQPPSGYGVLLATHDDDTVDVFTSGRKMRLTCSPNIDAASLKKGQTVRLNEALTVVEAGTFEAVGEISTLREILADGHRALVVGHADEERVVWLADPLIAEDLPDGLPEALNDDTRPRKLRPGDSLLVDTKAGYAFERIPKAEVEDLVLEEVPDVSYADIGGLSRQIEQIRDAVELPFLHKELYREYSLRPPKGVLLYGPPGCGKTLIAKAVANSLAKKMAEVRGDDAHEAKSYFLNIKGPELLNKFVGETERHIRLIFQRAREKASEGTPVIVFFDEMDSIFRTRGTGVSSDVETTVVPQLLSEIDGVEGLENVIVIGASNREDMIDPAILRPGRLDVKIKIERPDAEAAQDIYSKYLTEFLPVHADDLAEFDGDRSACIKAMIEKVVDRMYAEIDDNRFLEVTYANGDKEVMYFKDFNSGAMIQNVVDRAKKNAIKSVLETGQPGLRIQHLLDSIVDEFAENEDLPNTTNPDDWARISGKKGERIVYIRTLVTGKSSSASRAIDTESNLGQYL
Test: Ni-NTA agarose pull-down, Coomassie gel and anti-Mpa immunoblot

B1: [change] (other)
chain: MAQEQTKRGGGGGDDDDIAGSTAAGQERREKLTEETDDLLDEIDDVLEENAEDFVRAYVQKGGQ
**Q.** Does B1 bind?
**A.** Result: binds
